Drawing on patent publication US20210347908A1 (ELPISCIENCE SUZHOU BIOPHARMA, published 2021), this text covers binding result and EC50 for 11 molecules.

Assay [1] has as its target T1, full length C57BL/6 mouse SIRPα stably expressed on CHOK1 cells (mouse (C57BL/6), UniProt P97797 32-513).
T1 construct: whole, on cells; also called CHOK1-C57BL/6 mouse SIRPα-2.22 cells
T1 sequence (looked up): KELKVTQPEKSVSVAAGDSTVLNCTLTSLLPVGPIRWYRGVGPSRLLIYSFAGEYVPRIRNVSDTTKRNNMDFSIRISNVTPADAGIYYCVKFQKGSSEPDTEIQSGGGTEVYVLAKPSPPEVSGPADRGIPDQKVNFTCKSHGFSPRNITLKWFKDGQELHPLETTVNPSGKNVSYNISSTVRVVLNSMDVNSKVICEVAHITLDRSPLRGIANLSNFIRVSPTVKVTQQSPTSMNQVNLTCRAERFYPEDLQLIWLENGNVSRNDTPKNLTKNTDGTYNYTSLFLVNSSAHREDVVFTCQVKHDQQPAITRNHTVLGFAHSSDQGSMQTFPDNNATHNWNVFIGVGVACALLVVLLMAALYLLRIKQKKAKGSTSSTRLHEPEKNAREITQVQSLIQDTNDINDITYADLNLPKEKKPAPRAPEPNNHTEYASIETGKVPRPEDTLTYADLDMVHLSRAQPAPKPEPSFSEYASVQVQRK
Description: FACS on CHOK1 cells. Here is the method:
(§1) Species cross reactivity of the purified hybridoma antibodies against human, cyno and mouse SIRPα was determined by FACS assay using CHOK1-human SIRPα v1-1B4 cells, CHOK1-cyno SIRPα-2A2 cells, and CHOK1-C57BL/6 mouse SIRPα-2.22 cells, which stably expressing SIRPα protein. Briefly the antibodies were incubated with 2×10⁵ target cells at 4° C. for 1 hour. After washing, fluorescence labeled anti-mouse or anti-human IgG 2nd antibody (Life Technologies) was added and incubated at 4° C. for 1 hour. Geometric median fluorescence intensity was detected and EC₅₀ was calculated. In particular, it is noted, in contrast to the other antibodies tested in the same experiment, 060 cannot bind with cyno SIRPα and 035 has cross reactivity against C57BL/6 mouse SIRPα.
(§2) The purified chimeric antibodies were applied for binding specificity analysis and species cross reactivity analysis (refer to methods described in Example 3.3 and 3.4). FIGS. 1A to 1D show binding specificity of anti-SIRPα chimeric antibodies against recombinant proteins of human SIRPα v1 ECD (A), human SIRPα v2 ECD (B), human SIRPβ ECD (C) and human SIRPγ ECD (D) as measured by ELISA analysis.

For assay [2], the target named is T2, full length human SIRPα v1 stably expressed on CHOK1 cells (human, UniProt P78324 31-504).
T2 construct: whole, on cells; also called CHOK1-human SIRPα v1-1B4 cells; CHOK1-human SIRPα v1
Description: FACS on CHOK1 cells. The method, then:
as §1, §2

Assay [3] concerns the target T2, full length human SIRPα v1 stably …. The experiment in a line: FACS on CHOK1 cells. Here is the method:
as §1, with “SIRPα. […]” for “SIRPα.”
The source holds these as a separate data set.

The target of assay [4] is T3, Fc tagged human SIRPβ ECD recombinant protein (human, UniProt O00241 30-371).
T3 construct: range 1-371; cloned range includes the signal peptide; also called hSIRPβ; not shown: human IgG Fc region (hFc) of the pCPC vector
The experiment in a line: ELISA. Here is the method: (§3) Binding specificity of the purified hybridoma antibodies against SIRP family members was detected by ELISA assay using recombinant proteins of Fc tagged human SIRPα v1 ECD, human SIRPα v2 ECD, human SIRPβ ECD and human SIRPγ ECD. Briefly the antibodies were incubated with ELISA microplate coated antigens at 37° C. for 1 hour. After washing, horseradish peroxidase (HRP) labeled anti-mouse or anti-human IgG 2nd Ab (Sigma) was added and incubated at 37° C. for 1 hour. Then, 100 μl/well of TMB solution (Biotechnology) was added. After incubation for 15 minutes at room temperature, the reaction was stopped by the addition of 50 μl of 1N HCl. OD 450 nm was read and EC₅₀ was calculated. Other than 060 and HEFLB, all of the antibodies as tested can bind with both human SIRPα v1 and SIRPα v2. 060 and HEFLB can bind with human SIRPα v1 but not v2. Other than 055, all of the antibodies as tested can bind with human SIRPβ. In comparison with other known anti-SIRPα antibodies, only 022, 035 and 050 can bind with human SIRPγ weakly.
as §2
In general terms: An ELISA detects its analyte on a solid surface through an enzyme-linked reagent.

Assay [5] deals with T4, Fc tagged human SIRPα v1 ECD recombinant protein (human, UniProt P78324 31-370).
T4 construct: range 1-370; cloned range M1-R370 includes the signal peptide; also called hSIRPα V1; not shown: human IgG Fc region (hFc) of the pCPC vector
The experiment in a line: ELISA. Here is the method:
as §3, §2

Assay [6] addresses T3, Fc tagged human SIRPβ ECD recombinant …. The experiment in a line: ELISA. The method, then:
as §3, §2
The source holds these as a separate data set.

Assay [7] addresses T4, Fc tagged human SIRPα v1 ECD …. Description: ELISA. The method, then: as §3, §2
The source holds these as a separate data set.

Assay [8] addresses T2, full length human SIRPα v1 stably …. Description: FACS on CHOK1 cells. The source holds these as a separate data set.
Assay [9] deals with T5, Fc tagged human SIRPα v2 ECD recombinant protein (human).
T5 construct: range 1-369; cloned range M1-R369 includes the signal peptide; also called hSIRPα V2
The experiment in a line: ELISA. The method, then:
as §3, §2

For assay [10], the target named is T5, Fc tagged human SIRPα v2 ECD …. Description: ELISA. The method, then:
as §3, §2
This is another data set of the same source.

Read-outs that look alike come from different tables or passages of the source.

The EC50 is the concentration at which the effect is half-maximal.

T4 sequence (P78324 31-370 limits assumed): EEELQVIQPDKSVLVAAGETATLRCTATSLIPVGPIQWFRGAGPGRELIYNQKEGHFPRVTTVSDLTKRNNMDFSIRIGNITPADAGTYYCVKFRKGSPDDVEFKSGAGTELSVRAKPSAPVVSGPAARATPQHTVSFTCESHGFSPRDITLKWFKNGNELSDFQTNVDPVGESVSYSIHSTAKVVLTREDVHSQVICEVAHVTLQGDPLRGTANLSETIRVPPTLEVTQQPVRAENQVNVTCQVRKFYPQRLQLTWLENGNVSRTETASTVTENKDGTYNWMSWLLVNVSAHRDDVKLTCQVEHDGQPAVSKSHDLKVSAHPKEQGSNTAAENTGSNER
T3 sequence (O00241 30-371 limits assumed, form in doubt): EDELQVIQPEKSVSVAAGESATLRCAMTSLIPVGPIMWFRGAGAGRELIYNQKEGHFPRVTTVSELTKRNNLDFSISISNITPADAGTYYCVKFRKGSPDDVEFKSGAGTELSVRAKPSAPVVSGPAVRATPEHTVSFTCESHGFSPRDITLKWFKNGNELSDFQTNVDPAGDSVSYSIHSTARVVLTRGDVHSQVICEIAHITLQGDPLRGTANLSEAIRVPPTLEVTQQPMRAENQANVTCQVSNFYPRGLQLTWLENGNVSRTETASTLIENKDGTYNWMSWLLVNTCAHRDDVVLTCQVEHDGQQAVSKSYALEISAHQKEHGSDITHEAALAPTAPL
T2 sequence (P78324 31-504): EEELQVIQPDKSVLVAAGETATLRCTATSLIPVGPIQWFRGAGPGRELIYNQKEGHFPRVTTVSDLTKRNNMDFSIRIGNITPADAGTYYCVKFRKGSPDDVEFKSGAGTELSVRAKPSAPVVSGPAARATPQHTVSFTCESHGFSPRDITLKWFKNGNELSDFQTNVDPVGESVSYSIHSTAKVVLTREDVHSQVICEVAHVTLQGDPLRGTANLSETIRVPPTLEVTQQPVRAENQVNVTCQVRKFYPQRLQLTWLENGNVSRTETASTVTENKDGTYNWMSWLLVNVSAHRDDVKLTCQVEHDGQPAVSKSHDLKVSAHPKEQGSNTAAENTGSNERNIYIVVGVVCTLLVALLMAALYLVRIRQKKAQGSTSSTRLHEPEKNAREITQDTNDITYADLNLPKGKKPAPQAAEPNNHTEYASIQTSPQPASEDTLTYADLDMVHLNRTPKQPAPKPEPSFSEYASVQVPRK

B1: chimeric antibody 060c (antibody, V domains shown)
VH: QVQLKESGPGLVAPSESLSITCTVSGFSLTNYDISWIRQSPGKGLEWLGVIWTGGDTNFNSAFMSRLSISKDKSKSQVFLKLNSLQTDDTAIYYCVRVQYFGGSYGPMDYWGQGISVTVSS
VL: DIQMTQASSYLSVSLGGRVTITCEASDHINDWLAWYQQTPGNAPRLLISGATSLETGVPSRFSGSGSGKDYTLSITSLQTEDIATYYCQQYWNTPLTFGAGTRLELK
Consider B1, for which, in [1], the binding result was “no binding (tested: 10 nM)”. For the same molecule, the EC50 in [2] was 2.8 nM; in assay [3] it was 2.8 nM; in [4], 0.24 nM; in assay [5], 0.08 nM; in assay [6], 0.24 nM; in assay [7], 0.08 nM.

B2: Antibody 060 (hybridoma antibody) (antibody, V domains shown)
VH: QVQLKESGPGLVAPSESLSITCTVSGFSLTNYDISWIRQSPGKGLEWLGVIWTGGDTNFNSAFMSRLSISKDKSKSQVFLKLNSLQTDDTAIYYCVRVQYFGGSYGPMDYWGQGISVTVSS
VL: DIQMTQASSYLSVSLGGRVTITCEASDHINDWLAWYQQTPGNAPRLLISGATSLETGVPSRFSGSGSGKDYTLSITSLQTEDIATYYCQQYWNTPLTFGAGTRLELK
notes: mouse hybridoma antibody
B2 came in with an EC50 in assay [8] of 0.9 nM.

B3: Antibody 022 (hybridoma antibody) (antibody, V domains shown)
VH: QIQLVQSGPELKKPGETVKISCKASGYTFTDYAMHWVKQAPGKGLKWMGWKNTETGESTYAEDFKGRFAFFLETSASTAYLQINNVKNEDTATYFCARGGYGSNYVMDYWGQGTSVIVSS
VL: DIQMTQSSSSFSVSLGDRVTITCKASEDIYNRLAWYQQKPGNAPRLLISGATSLETGVPSRFSGSGSGKDYTLSITSLQTEDVATYYCQQYWNSPRTFGGGTKLEIK
notes: mouse hybridoma antibody
In [8], B3 came in with a 50% effective concentration (EC50) of 2.1 nM.

B4: Antibody 001 (hybridoma antibody) (antibody, V domains shown)
VH: EVKLEESGGGLVQPGGSMKLSCVASGFTFRNYWMNWVRQSPERGLEWIAEISLKSNTYATHYAESVKGRFAISRDGSKSSFYLQMNDLRAEDTGIYYCTTFTKVVADWHLDVWGAGTTVTVSS
VL: DVLMTQTPLSLPVSLGDQASISCRSSQNIVHSNGNTYLEWYLQKPGQSPKLLIYKVSNRFSGVPDRFSGSGSGTDFTLRISRVEAEDLGVYYCFQGSHVPFTFGSGTKLEIK
notes: mouse hybridoma antibody
As for B4, in assay [8], a half-maximal response (EC50) required 1 nM.

B5: Antibody 032 (hybridoma antibody) (antibody, V domains shown)
VH: EVRLEESGGGLVQPGGSMKLSCVVSGFTFRNYWMNWVRQSPERGLEWIAEITLKSNTYATHYAESVKGRFAISRDDSKSSFYLQMNDLRPEDTGIYYCTTFTKVVADWHLDVWGAGTTVTVSS
VL: DVLMTQTPLSLPVNLGDQASISCRSSQNIVHSNGNTYLEWYLQKPGQSPKLLIYKVSNRFSGVPDRFSGSGSGTDFTLRISRVEAEDLGVYYCFQGSHVPFTFGSGTKLEIK
notes: mouse hybridoma antibody
The molecule B5 registered an EC50 in assay [8] of 0.4 nM.

B6: Antibody 002 (hybridoma antibody) (antibody, V domains shown)
VH: EVKLEESGGGLVQPGGSMILSCVASGFTFRNYWMNWVRQSPERGLEWIAEITLKSNTYATHYAESVKGRFAISRDDSKSSFYLQMNDLRPEDTGIYYCTTFTKVVADWHLDVWGAGTTVTVSS
VL: DVLMTQTPLSLPVSLGDQASISCRSSQNIVHSNGNTYLEWYLQKPGQSPKLLIYKISNRFSGVPDRFSGSGSGTDFTLRISRVEAEDLGVYYCFQGSHVPFTFGSGTKLEIQ
notes: mouse hybridoma antibody
In assay [8], B6 showed an EC50 of 1 nM.

B7: Antibody 050 (hybridoma antibody) (antibody, V domains shown)
VH: QIQLVQSGPELKKPGETVKISCKASGYTFTHYSMHWVKQAPGKGLKWMGWINTETAEPTYVDDFKGRFAFSLEASASTAFFQINNLKNEDTATYFCARGGLRQGDYWGQGTTLTVSS
VL: QIVLTQSPPIMSASPGEKVTLTCSATSSVSASYLYWFQQKPGSSPKLWIYSTSNLASGVPARFSGSGSGTSYSLTISNMEPADAASYFCHQWSSYPYTFGGGTKLEIK
notes: mouse hybridoma antibody
B7 returned an EC50 in assay [8] of 1.3 nM.

B8: Antibody 035 (hybridoma antibody) (antibody, V domains shown)
VH: QIQLVQSGPELRKPGETVKISCKASGYSFTNYAMNWVKQAPGKVLKWMGFINTYTGEPTYADDFKGRFAFSLETSASTAYLQINNLKNEDTATYFCTRTRGYYDFDGGAFDYWGQGTSLTVSS
VL: DIVMTQSQKFMSTSIGDRVSVTCKASQNVGTHLAWYQQKPGQSPKALIFSASYRYIGVPDRFTGSGSGTDFTLTITNVQSEDLAEYFCQQYNTYPLTFGAGTKLELK
notes: mouse hybridoma antibody
On to B8, for which the concentration giving a half-maximal response (EC50) in assay [8] amounted to 0.7 nM.

B9: reference antibody HEFLB (antibody, V domains shown)
VH: EVQLVQSGAEVKKPGESLRISCKASGYSFTSYWVHWVRQMPGKGLEWMGNIDPSDSDTHYSPSFQGHVTLSVDKSISTAYLQLSSLKASDTAMYYCVRGGTGTLAYFAYWGQGTLVTVSS
VL: DVVMTQSPLSLPVTLGQPASISCRSSQSLVHSYGNTYLYWFQQRPGQSPRLLIYRVSNRFSGVPDRFSGSGSGTDFTLKISRVEAEDVGVYYCFQGTHVPYTFGGGTKVEIK
Regarding B9, the EC50 in assay [8] came out at 11.2 nM; in [2], 11.2 nM; in assay [3], 11.2 nM; in [4] it was 0.08 nM; in assay [5] it was 0.11 nM; in [6] it was 0.08 nM. For the same molecule, the EC50 in assay [7] came out at 0.11 nM. In addition, the binding result in assay [1] is “no binding (tested: 10 nM)”.

B10: Antibody 074 (hybridoma antibody) (antibody, V domains shown)
VH: QVQLQQPRAELVKPGASVMLSCKASGYTFSSYWIHWVRQGPGQGLEWIGLIHPNSGNTDCSETFKNKATLTVDTSSSTAYMQLSSLASEDSAVYYCARDGASYDWFVHWGQGTLVTVSA
VL: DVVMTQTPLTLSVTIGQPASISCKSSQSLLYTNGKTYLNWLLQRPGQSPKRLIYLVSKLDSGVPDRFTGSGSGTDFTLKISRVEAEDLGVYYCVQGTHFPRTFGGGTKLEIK
notes: mouse hybridoma antibody
B10 had an EC50 in [8] of 1 nM.

B11: chimeric antibody 055c (antibody, V domains shown)
VH: EVKLVESEGGLVQPGDSMKLSCTASGFTFSDYFMTWIRQVPEKGLEWIANVNYDGRSTYYLDSLKSRFIISRDNANNILYLQMSSLKSEDTATYYCAREGSQTPLYAVDYWGQGTSVTVSS
VL: DIVMTQSQKFMSTTVGDRVNITCKASQNVGTAVAWYQQKPGQSPKLLIYLASNRYTGVPDRFTGSGSGTDFTLTVSDMRSEDLADYFCQQYSIYPFTFGSGTKLEIK
On to B11, for which, in assay [1], the binding result is “no binding (tested: 10 nM)”. Also, the EC50 is 3.4 nM in [2]; 3.4 nM in [3]; 0.11 nM in [9]; 0.11 nM in [5]; 0.11 nM in assay [10]; 0.11 nM in assay [7].
